± gives the standard deviation of the averaged measurements.
B1: library; a variant is named by its letters at N, in order (parent)
chain: AATGTTGTTGATGCAACCATAAAGTGATATTTAATAATTATTTATAATCAGCAACTTAACCACAAAACAACCATATATTGATATNTCACAAAACAACCATAANTTGATATTTTTGTGAATCGAGTATTTCAGCAAAACTACTGCAGTAAGAA

How the values were obtained:
[1] = variants of: B1; experiment: relative integration efficiency (T-LR orientation) vs wild-type transposon end (log2 (normalized fold change)); transposon end mutated: left end; higher = more efficient transposition; conditions: with VchCAST RNA-guided transposition machinery (E. coli BL21(DE3) host, lacZ target)
In short: (§1)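 Barcoded pools of 1549 left-end or 1849 right-end transposon variants were cloned into a pUC57 mini-transposon donor. Each pool was co-transformed with a T7-driven effector plasmid (CRISPR array, tniQ-cas8-cas7-cas6, tnsA-tnsB-tnsC) into E. coli BL21(DE3) and plated with 0.1 mM IPTG at 37°C for 18 h. Input plasmids and genomic integration junctions were PCR-amplified and Illumina-sequenced, with two biological output replicates and four wild-type barcodes as reference. Relative integration efficiency is output/input barcode abundance fold change, normalised to wild-type barcodes and log-transformed.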

[2] = variants of: B1; experiment: relative integration efficiency (T-RL orientation) vs wild-type transposon end (log2 (normalized fold change)); transposon end mutated: left end; higher = more efficient transposition; conditions: with VchCAST RNA-guided transposition machinery (E. coli BL21(DE3) host, lacZ target)
In short: as §1

For AATGTTGTTGATGCAACCATAAAGTGATATTTAATGATTATCTATAATCAGCAACTTAACCGCAGCACAACCATATATTGATATCTCACAAAACAACCATAAGTTGATATTTTTGTGAATCGAGTATTTCAGCAAAACTACTGCAGTAAGAA [CG A36G T42C A62G A65G A66C], the “relative integration efficiency (log2)” value [1] was -0.297 ± 0.32 and the “relative integration efficiency (log2)” value [2] was -0.575 ± 0.29.

AATGTTGTTGATGCAACCATAAAGTGATATTTAATAATTATTTATAATCAGCAACTTAACCACAAAACAACCATATATTGATATCTCACAAAACAACCATAAGTTGATATTTTTGGTCCGATCTGATTTCAGCAAAACTACTGCAGTAAGAA [CG T116G G117T A118C A119C T120G C121A G122T A123C G124T T125G] was tested, and the “relative integration efficiency (log2)” value [1] was -0.144 ± 0.39 and the “relative integration efficiency (log2)” value [2] was -0.0959 ± 0.032.

In the case of AATGTTGTTGATGCAACCATAAAGTGATATTTAATAATTATTTATAATCAGCAACTTAACCACAAAACAACCATATATGTATATCTCACAAAACAACCATAAGTTGATATTTTTGTGAATCGAGTATTTCAGCAAAACTACTGCAGTAAGAA [CG T79G G80T], the “relative integration efficiency (log2)” value [1] is reported as -0.966 ± 0.14 and the “relative integration efficiency (log2)” value [2] is reported as -1.24 ± 0.76.

With AATGTTGTTGATGCAACCATAAAGTGATAGGTAATAATTATTTATAATCAGCAACTTAACCACAAAACAACCATATATTGATATCTCACAAAACAACCATAAGTTGATATTTTTGTGAATCGAGTATTTCAGCAAAACTACTGCAGTAAGAA [CG T30G T31G] the “relative integration efficiency (log2)” value [1] was -1.56 ± 0.31 and the “relative integration efficiency (log2)” value [2] was -0.964 ± 0.45.

AATGTTGTTGATGCAACCATAAAGTGATATTTAATGATTATTTATAATCAGCAACTTAACCACAGCACAACCATATATTGATATCTCACAAAACAACCATAAGTTGATATTTTTGTGAATCGAGTATTTCAGCAAAACTACTGCAGTAAGAA [CG A36G A65G A66C] was tested, and the “relative integration efficiency (log2)” value [1] was -0.205 ± 0.26 and the “relative integration efficiency (log2)” value [2] was -0.491 ± 0.18.

For AATGTTGTTGATGCAACCATAAAGTGATATTTAATAATTATTTATAATCAGCAACTTAACCACAAAACAACCATATATTGATATCTCACAAAACAACCATAAGTTGAGCTTTTTGTGAATCGAGTATTTCAGCAAAACTACTGCAGTAAGAA [CG T108G A109C], the “relative integration efficiency (log2)” value [1] was -0.995 ± 1 and the “relative integration efficiency (log2)” value [2] was -1.16 ± 0.59.

In the case of AATGTTGTTGATGCAACCATAAAGTGATATTTAATAATTACTTATAATCAGCAACTTAACCACAAAACAACCATATATTGATATCTCACAAAACAACCATAAGTTGATATTTTTGTGAATCGAGTATTTCAGCAAAACTACTGCAGTAAGAA [CG T41C], the “relative integration efficiency (log2)” value [1] is reported as 1.29 ± 0.16 and the “relative integration efficiency (log2)” value [2] is reported as 0.304 ± 0.26.

For AATGTTGTTGATGCAACCATAAAGTGATATTTAATAATTATTTATAATCAGCAACTTAACCACAAAACAACCATATATTGATATCTCACAAATGTTCCATAAGTTGATATTTTTGTGAATCGAGTATTTCAGCAAAACTACTGCAGTAAGAA [CG A93T C94G A95T A96T], the “relative integration efficiency (log2)” value [1] was -2.14 ± 0.41 and the “relative integration efficiency (log2)” value [2] was -1.82 ± 0.58.

With AATGTTGTTGATGCAACCATAAAGTGATATTTAATAATTAAATATAATCAGCAACTTAACCACAAAACAACCATATATTGATATCTCACAAAACAACCATAAGTTGATATTTTTGTGAATCGAGTATTTCAGCAAAACTACTGCAGTAAGAA [CG T41A T42A] the “relative integration efficiency (log2)” value [1] was 0.775 ± 0.0053 and the “relative integration efficiency (log2)” value [2] was 0.864 ± 0.047.

For AATGTTGATGATGCAACCATAAAGTGATATTTAATAATTATTTATAATCAGCAACTTAACCACAAAACAACCATATATTGATATCTCACAAAACAACCATAAGTTGATATTTTTGTGAATCGAGTATTTCAGCAAAACTACTGCAGTAAGAA [CG T8A], the “relative integration efficiency (log2)” value [1] was -0.491 ± 0.035 and the “relative integration efficiency (log2)” value [2] was -0.209 ± 0.19.

AATGTTGTTGATGCAACCATATAGTGATATTTAATAATTATTTATAATCAGCAACTTAACCACAAAACAACCATAAATTGATATCTCACAAAACAACCATATGTTGATATTTTTGTGAATCGAGTATTTCAGCAAAACTACTGCAGTAAGAA [CG A22T T76A A102T] was tested, and the “relative integration efficiency (log2)” value [1] was 0.271 ± 0.39 and the “relative integration efficiency (log2)” value [2] was 0.269 ± 0.11.

With AATGTTGTTGATGCACCCATAAATTGATAATTAATAATTATTTATAATCAGCAACTTAACCACAAAACAACCATAAGTTGATATTTTACAAAACAACCATATATTGATATCTCTGTGAATCGAGTATTTCAGCAAAACTACTGCAGTAAGAA [TA A16C G24T T30A T76A A77G C87T A102T T111C T113C] the “relative integration efficiency (log2)” value [1] was -1.05 ± 1.4 and the “relative integration efficiency (log2)” value [2] was -0.994 ± 0.46.

For AATGTTGTTGATGCAACCATAAAGTGATATTTAATAATTATTTATAATCAGCAACTTAACCACAAAACAACCATATATTGATATCTCACAAAACAACCATAAGTTGATAAATTTGTGAATCGAGTATTTCAGCAAAACTACTGCAGTAAGAA [CG T110A T111A], the “relative integration efficiency (log2)” value [1] was -0.344 ± 0.074 and the “relative integration efficiency (log2)” value [2] was -0.513 ± 0.22.

In the case of AATGTTGTTGATGCAACCATAAAGTGATATTTAATAATTATTTATAATCAGCAACTTAACCACAAAACAACCATATATTGATATCTCACAAAACAACCATAAGTGTATATTTTTGTGAATCGAGTATTTCAGCAAAACTACTGCAGTAAGAA [CG T105G G106T], the “relative integration efficiency (log2)” value [1] is reported as -0.649 ± 0.86 and the “relative integration efficiency (log2)” value [2] is reported as -1.2 ± 0.72.

For CCTGTTGTTGATGCAACCATAAAGTGATATTTAATAATTATTTATAATCAGCAACTTAACCACAAAACAACCATATATTGATATCTCACAAAACAACCATAAGTTGATATTTTTGTGAATCGAGTATTTCAGCAAAACTACTGCAGTAAGAA [CG A1C A2C], the “relative integration efficiency (log2)” value [1] was -0.0923 ± 0.12 and the “relative integration efficiency (log2)” value [2] was -0.242 ± 0.0032.

For AATGTTGTTGATGCAACCATAAAGTGATATTTAATAATTATTTATAATCAGCAACTTAACCACAAAACAACCAAATATTGATATCTCACAAAACAACCATAAGTTGATATTTTTGTGAATCGAGTATTTCAGCAAAACTACTGCAGTAAGAA [CG T74A], the “relative integration efficiency (log2)” value [1] was -0.12 ± 0.44 and the “relative integration efficiency (log2)” value [2] was -0.331 ± 0.2.

For AATGTTGTTCTTGCAACCATAAAGTGATATTTAATAATTATTTATAATCAGCAACTTAACCACAAAACAACCATATATTGATATCTCACAAAACAACCATAAGTTGATATTTTTGTGAATCGAGTATTTCAGCAAAACTACTGCAGTAAGAA [CG G10C A11T], the “relative integration efficiency (log2)” value [1] was < -10 and the “relative integration efficiency (log2)” value [2] was 0.833 ± 0.19.

In the case of AATGTTGTTGATGCAACCATAAAGTGATATTTAATAATTATTTATAATCAGCAACTTAACCTCAAAACAACCATATATTGATATCTCACAAAACAACCATAAGTTGATATTTTTGTGAATCGAGTATTTCAGCAAAACTACTGCAGTAAGAA [CG A62T], the “relative integration efficiency (log2)” value [1] is reported as 1.22 ± 0.39 and the “relative integration efficiency (log2)” value [2] is reported as 1.17 ± 0.29.

With AATGTTGTTGATGCAACCATAAAGTGATATTTACTGACTGTCTATAATCAGCAACTTAACCGCAGCACAACCATATATTGATATCTCACAAAACAACCATAAGTTGATATTTTTGTGAATCGAGTATTTCAGCAAAACTACTGCAGTAAGAA [CG A34C A36G T38C A40G T42C A62G A65G A66C] the “relative integration efficiency (log2)” value [1] was -0.589 ± 0.68 and the “relative integration efficiency (log2)” value [2] was -0.685 ± 0.25.
